Measurements taken from patent publication US20090004749, “METHOD AND KIT FOR DETERMINING THE AMOUNT OF DNA BINDING PROTEIN” (SYSMEX CORPORATION, published 2009).

Legend:
NF-κB (recombinant, p50) [1] = target: T1, NF-κB (recombinant, p50) (UniProt P19838 P19838:1-433); experiment: fluorescence correlation spectroscopy; 1 nM probe, room temperature; 10 min; conditions: tags: Promega; detected with anti-p50 antibody; chain copies: 2; label: 5'-TAMRA; hairpin, stem-loop with AAAA loop
Description: (§1) As a pure-line sample, 0.6 μg/μl solution of recombinant NF-κB was used. […] As the control, a pure-line sample-free sample using the fluorescent-labeled probe Pfw only as a nucleic acid probe was used. In the Reference Example, the sample to which an anti-p50 antibody had further been added was used. The reaction time was 10 minutes for each sample.

NF-κB (recombinant, p50) [2] = target: T1, NF-κB (recombinant, p50); experiment: competition; FCS; unlabeled competitor against 1 nM Pfw; conditions: tags: Promega; detected with anti-p50 antibody; chain copies: 2; hairpin, stem-loop with AAAA loop
Description: as §1

NF-κB (recombinant, p50) [3] = target: T1, NF-κB (recombinant, p50); experiment: competition; FCS; no competition at 50 nM; diffusion time same as without competitor; conditions: tags: Promega; detected with anti-p50 antibody; chain copies: 2; hairpin, stem-loop with AAAA loop
Description: as §1

T1 sequence (P19838 1-433, one chain of several): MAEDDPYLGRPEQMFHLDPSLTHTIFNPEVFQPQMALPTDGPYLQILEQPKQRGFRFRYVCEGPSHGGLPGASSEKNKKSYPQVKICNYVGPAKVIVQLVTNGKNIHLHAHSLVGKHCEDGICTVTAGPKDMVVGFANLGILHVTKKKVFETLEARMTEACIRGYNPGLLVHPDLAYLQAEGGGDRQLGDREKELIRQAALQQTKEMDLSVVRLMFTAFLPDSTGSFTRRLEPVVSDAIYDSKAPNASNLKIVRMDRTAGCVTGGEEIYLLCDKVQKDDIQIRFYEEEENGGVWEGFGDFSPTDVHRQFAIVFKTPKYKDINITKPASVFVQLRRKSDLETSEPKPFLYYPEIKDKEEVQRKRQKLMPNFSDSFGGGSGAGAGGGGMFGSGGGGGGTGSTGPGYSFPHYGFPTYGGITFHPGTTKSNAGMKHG

B1: Pfw (structured_DNA)
DNA: AGTTGAGGGGACTTTCCCAGGCAAAAGCCTGGGAAAGTCCCCTCAACT
binding result (NF-κB (recombinant, p50) [1]): binds

B2: Pw (structured_DNA)
DNA: B1 DNA
binding result (NF-κB (recombinant, p50) [2]): binds

B3: Pn (structured_DNA)
DNA: CAGGCGCGTTTTGACCATCTTAAAAAAGATGGTCAAAACGCGCCTG
binding result (NF-κB (recombinant, p50) [3]): no binding
